The values below come from article PMC5940254 (The Journal of General Physiology, 2018).

Common to all, as to assay: single-molecule pull-down
For data set [1], the target named is Ci-VSP phosphatase-only protein (PDo) (Ciona intestinalis).
Data set [2] has the same target. This is another data set of the same source.
The target in data set [3] is Ci-VSP voltage-sensing domain only protein (VSDo) (Ciona intestinalis).
The target is the same in data set [4]. This is another data set of the same source.
Data set [5] deals with the molecule itself.

Like-named read-outs stand apart in the source and are kept apart here.

Take “Ci-VSP phosphatase-only protein (PDo) (domain or fragment)”: in data set [1], the percent of spots bleaching in a single step was 57% and the percent of spots bleaching in two steps is 34%. In addition, in data set [2], the percent of spots bleaching in a single step turned out to be 80% and the stoichiometry N (in general, the number of molecules, sites or subunits per partner or assembly) turned out to be 2.
In data set [3], “Ci-VSP voltage-sensing domain only protein (VSDo) (domain or fragment)” registered a percent of spots bleaching in a single step of 37% and a percent of spots bleaching in two steps of 55%. In data set [4], this molecule displayed a percent of spots bleaching in a single step of 65% and a stoichiometry N of 2.

B1: ASIC1A channel, HA- and GFP-tagged (trimer control) (natural protein)
chain: MELKTEEEEVGGVQPVSIQAFASSSTLHGLAHIFSYERLSLKRALWALCFLGSLAVLLCVCTERVQYYFCYHHVTKLDEVAASQLTFPAVTLCNLNEFRFSQVSKNDLYHAGELLALLNNRYEIPDTQMADEKQLEILQDKANFRSFKPKPFNMREFYDRAGHDIRDMLLSCHFRGEACSAEDFKVVFTRYGKCYTFNSGQDGRPRLKTMKGGTGNGLEIMLDIQQDEYLPVWGETDETSFEAGIKVQIHSQDEPPFIDQLGFGVAPGFQTFVSCQEQRLIYLPSPWGTCNAVTMDSDFFDSYSITACRIDCETRYLVENCNCRMVHMPGDAPYCTPEQYKECADPALDFLVEKDQEYCVCEMPCNLTRYGKELSMVKIPSKASAKYLAKKFNKSEQYIGENILVLDIFFEVLNYETIEQKKAYEIAGLLGDIGGQMGLFIGASILTVLELFDYAYEVIKHRLCRRGKCQKEAKRSSADKGVALSLDDVKRHNPCESLRGHPAGMTYAANILPHHPARGTFEDFTC
Regarding B1, the “stoichiometry N” value in data set [5] was determined as 3.

B2: TREK1 channel, HA- and/or GFP-tagged (dimer and monomer controls) (natural protein)
chain: MLASASRERPGYTAGVAAPDLLDPKSAAQNSKPRLSFSSKPTVLASRVESDSAINVMKWKTVSTIFLVVVLYLIIGATVFKALEQPQEISQRTTIVIQKQTFIAQHACVNSTELDELIQQIVAAINAGIIPLGNSSNQVSHWDLGSSFFFAGTVITTIGFGNISPRTEGGKIFCIIYALLGIPLFGFLLAGVGDQLGTIFGKGIAKVEDTFIKWNVSQTKIRIISTIIFILFGCVLFVALPAVIFKHIEGWSALDAIYFVVITLTTIGFGDYVAGGSDIEYLDFYKPVVWFWILVGLAYFAAVLSMIGDWLRVISKKTKEEVGEFRAHAAEWTANVTAEFKETRRRLSVEIYDKFQRATSVKRKLSAELAGNHNQELTPCRRTLSVNHLTSEREVLPPLLKAESIYLNGLTPHCAGEDIAVIENMK
On to B2, for which the “stoichiometry N” value in data set [5] is 2.
